Positions count from the first letter of the chain named. In names and notes the source's numbering stands.
B1: Arabidopsis thaliana RidA, construct starting from S68 (AtRidA-S68), wild type (enzyme, UniProt Q94JQ4 68-187, looked up)
chain: STEKAPAALGPYSQAIKANNLVFLSGVLGLIPETGKFVSESVEDQTEQVLKNMGEILKASGADYSSVVKTTIMLADLADFKTVNEIYAKYFPAPSPARSTYQVAALPLNAKIEIECIATL
notes: Reactive Intermediate Deaminase A (RidA), Arabidopsis thaliana, GenBank AY060547.1, residues S68-L187 (without the predicted chloroplast transit peptide); Residues S80-L187 are resolved in the crystal structures; also called RidA WT; apo-AtRidA; source: E. coli BL21 (DE3), purified (Ni-NTA, PreScission cleavage, Histrap); not shown: His6, N-terminal, cleaved
B2: AtRidA-S68 S80A (enzyme, Arabidopsis thaliana, UniProt Q94JQ4 68-187, looked up)
chain: B1 chain with S13A
notes: Reactive Intermediate Deaminase A (RidA), Arabidopsis thaliana, GenBank AY060547.1, residues S68-L187, made by QuikChange on the RidA-S68/pET28a(+) plasmid; The purification of the mutants is not described separately; probably as for the wild type (tag cleaved); also called RidA-S80A; source: E. coli BL21 (DE3), purified
B3: AtRidA-S68 S166A (enzyme, Arabidopsis thaliana, UniProt Q94JQ4 68-187, looked up)
chain: B1 chain with S99A
notes: Reactive Intermediate Deaminase A (RidA), Arabidopsis thaliana, GenBank AY060547.1, residues S68-L187, made by QuikChange on the RidA-S68/pET28a(+) plasmid; The purification of the mutants is not described separately; probably as for the wild type (tag cleaved); also called RidA-S166A; source: E. coli BL21 (DE3), purified
B4: AtRidA-S68 K136R (enzyme, Arabidopsis thaliana, UniProt Q94JQ4 68-187, looked up)
chain: B1 chain with K69R
notes: Reactive Intermediate Deaminase A (RidA), Arabidopsis thaliana, GenBank AY060547.1, residues S68-L187, made by QuikChange on the RidA-S68/pET28a(+) plasmid; The purification of the mutants is not described separately; probably as for the wild type (tag cleaved); also called RidA-K136R; source: E. coli BL21 (DE3), purified
B5: AtRidA-S68 S92A (enzyme, Arabidopsis thaliana, UniProt Q94JQ4 68-187, looked up)
chain: B1 chain with S25A
notes: Reactive Intermediate Deaminase A (RidA), Arabidopsis thaliana, GenBank AY060547.1, residues S68-L187, made by QuikChange on the RidA-S68/pET28a(+) plasmid; The purification of the mutants is not described separately; probably as for the wild type (tag cleaved); also called RidA-S92A; source: E. coli BL21 (DE3), purified
B6: AtRidA-S68 E182A (enzyme, Arabidopsis thaliana, UniProt Q94JQ4 68-187, looked up)
chain: B1 chain with E115A
notes: Reactive Intermediate Deaminase A (RidA), Arabidopsis thaliana, GenBank AY060547.1, residues S68-L187, made by QuikChange on the RidA-S68/pET28a(+) plasmid; The purification of the mutants is not described separately; probably as for the wild type (tag cleaved); also called RidA-E182A; source: E. coli BL21 (DE3), purified

Tests used:
[1] = biological target: the molecule itself; assay: SEC; 0.5 mg of RidA WT and mutants loaded separately onto a Superdex-75 size-exclusion column; protein standards as size reference
[2] = biological target: the molecule itself; assay: crystal structure; apo form; space group H3, one monomer per asymmetric unit, trimer by the crystallographic 3-fold axis; sitting drop, 18% PEG 3350, 0.1 M MES pH 6.0, 25 °C

Protein | stoichiometry N [1] | stoichiometry N [2] | binding result [1]
B1 | ~3 | 3 | 
B2 |  |  | binds
B3 |  |  | binds
B4 |  |  | binds
B5 |  |  | binds
B6 |  |  | binds
